This is an account of results in US20140112930A1 (published 2014).

In assay [1] the target is T1, Biotin-hBA2 (human, biotinylated (sites not given)).
T1 construct: hBA2 consists of two dimers; also called biotinylated hBA2; human bow-Ang2
Nature of the assay: blocking ELISA, biotin-hBA2 to hTie-2.

The next assay has as its target T2, Human Ang-2FD-hFc (human).
T2 construct: also called dimeric human Ang-2FD; human Ang-2FD protein conjugated to human IgG
Nature of the assay: blocking ELISA, 16.67 nM antibody, Ang-2FD-hFc to coated hTie-2-mFc. Here is the method: (§1) The plate was then blocked with PBS (Irvine Scientific, Santa Ana, Calif.) containing 0.5% BSA (Sigma-Aldrich Corp., St. Louis, Mo.) for one hour at room temperature. […] Human, mouse or monkey Ang-2FD protein conjugated to human IgG (Ang-2FD-hFc) were added to final concentrations of 2 nM, 8 nM, or 2 nM respectively and incubated for one hour at room temperature. The antibody/Ang-2FD-Fc mixture was then added to the plate containing hTie-2-mFc and incubated for one hour at room temperature. Detection of Ang-2FD-hFc bound to hTie-2-mFc protein was determined with Horse-Radish Peroxidase (HRP) conjugated to a-human IgG antibody (Jackson Immuno Research Lab, West Grove, Pa.) and developed by standard colorimetric response using tetramethylbenzidine (TMB) substrate (BD Biosciences, San Jose, Calif.). Absorbance was read at OD₄₅₀ for 0.1 sec.

The target in another assay is T3, Mouse Ang-2FD-hFc (mouse (Mus musculus)).
T3 construct: also called dimeric mouse Ang-2FD
T3 sequence (chain, as listed by the source limits assumed): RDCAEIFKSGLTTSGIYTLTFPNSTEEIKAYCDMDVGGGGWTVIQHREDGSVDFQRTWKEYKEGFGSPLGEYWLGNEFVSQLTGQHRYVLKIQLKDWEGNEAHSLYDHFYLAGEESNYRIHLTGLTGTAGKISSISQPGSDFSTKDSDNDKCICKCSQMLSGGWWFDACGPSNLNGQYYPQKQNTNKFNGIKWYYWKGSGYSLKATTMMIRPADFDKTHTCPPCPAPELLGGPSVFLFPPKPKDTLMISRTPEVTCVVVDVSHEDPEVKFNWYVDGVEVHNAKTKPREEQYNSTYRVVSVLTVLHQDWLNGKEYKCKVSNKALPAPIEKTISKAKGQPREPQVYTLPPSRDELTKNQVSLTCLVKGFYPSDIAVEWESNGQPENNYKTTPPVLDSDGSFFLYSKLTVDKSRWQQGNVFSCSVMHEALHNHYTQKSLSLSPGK
The description is as above. Here is the method:
as §1

Another assay concerns the target T4, Monkey Ang-2FD-hFc (monkey (Macca fascicularis)).
T4 construct: also called dimeric monkey Ang-2FD
The assay is described as above. Here is the method:
as §1

For assay [2], the target named is T1, Biotin-hBA2. Nature of the assay: blocking ELISA, biotin-hBA2 to hTie-2-His, mean of two experiments. The protocol:
as §1
For this experiment, human Tie-2 conjugated to a histidine tag (hTie-2-His; SEQ ID NO:526) was used in a similar fashion to the hTie-2-mFc described above. Antibody concentrations from 5 nM were serially diluted three-fold. […] An average IC₅₀ value for each antibody was calculated based on two separate experiments.

The target in assay [3] is T5, Dimeric Mouse Ang-2FD conjugated to human IgG1 (mouse (Mus musculus); human).
T5 construct: also called Mouse Ang-2FD-hFc
Briefly: SPR, captured Ab, RT. The essentials: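 Antibody captured on amine-coupled goat anti-mouse IgG, anti-human κ or anti-human IgG polyclonal surfaces on a CM5 chip; antigen binding and dissociation followed in real time at room temperature. KD and complex dissociation half-life derived by kinetic analysis.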

Assay [4] deals with T5, Dimeric Mouse Ang-2FD conjugated to …. Briefly: SPR, captured Ab, 25°C. Here is the method: (§2) Each selected antibody or control construct was captured at a flow rate of 40 μL/min for 1 minute on a goat anti-human kappa polyclonal antibody surface created through direct chemical coupling to a BIACORE™ chip to form a captured antibody surface.
The target is the same in assay [5]. Briefly: SPR, captured Ab, 37°C. The protocol:
as §2

T2 sequence (chain, as listed by the source limits assumed): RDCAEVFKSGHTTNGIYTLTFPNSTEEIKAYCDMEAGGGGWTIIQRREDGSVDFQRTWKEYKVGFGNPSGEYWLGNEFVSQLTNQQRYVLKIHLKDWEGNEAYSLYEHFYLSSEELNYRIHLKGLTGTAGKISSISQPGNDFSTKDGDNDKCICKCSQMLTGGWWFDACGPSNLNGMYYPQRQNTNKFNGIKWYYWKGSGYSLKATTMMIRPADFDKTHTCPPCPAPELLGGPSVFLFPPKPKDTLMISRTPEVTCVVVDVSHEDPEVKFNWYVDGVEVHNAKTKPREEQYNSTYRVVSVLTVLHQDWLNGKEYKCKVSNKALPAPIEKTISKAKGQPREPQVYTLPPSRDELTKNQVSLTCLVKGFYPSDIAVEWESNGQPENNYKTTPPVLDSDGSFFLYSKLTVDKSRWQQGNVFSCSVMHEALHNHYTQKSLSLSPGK
T1 sequence (chain, as listed by the source limits assumed): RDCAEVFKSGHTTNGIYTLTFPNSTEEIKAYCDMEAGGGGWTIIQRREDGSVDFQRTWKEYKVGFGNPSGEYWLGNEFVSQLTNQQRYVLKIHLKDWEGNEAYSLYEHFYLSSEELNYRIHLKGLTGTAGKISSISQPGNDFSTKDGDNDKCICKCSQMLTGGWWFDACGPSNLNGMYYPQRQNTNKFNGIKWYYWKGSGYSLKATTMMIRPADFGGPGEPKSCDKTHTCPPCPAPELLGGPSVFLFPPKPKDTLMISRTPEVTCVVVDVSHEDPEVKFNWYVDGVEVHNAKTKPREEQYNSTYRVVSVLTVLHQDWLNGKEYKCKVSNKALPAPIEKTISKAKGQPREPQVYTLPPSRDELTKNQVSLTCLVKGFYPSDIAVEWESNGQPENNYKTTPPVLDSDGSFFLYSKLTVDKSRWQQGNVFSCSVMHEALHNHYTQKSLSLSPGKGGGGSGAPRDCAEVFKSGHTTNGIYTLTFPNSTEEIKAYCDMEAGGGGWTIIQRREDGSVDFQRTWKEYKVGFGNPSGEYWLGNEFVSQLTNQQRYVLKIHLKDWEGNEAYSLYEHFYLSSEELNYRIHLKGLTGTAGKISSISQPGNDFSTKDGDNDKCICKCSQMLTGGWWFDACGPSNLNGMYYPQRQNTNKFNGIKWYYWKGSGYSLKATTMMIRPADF
T4 sequence (chain, as listed by the source limits assumed): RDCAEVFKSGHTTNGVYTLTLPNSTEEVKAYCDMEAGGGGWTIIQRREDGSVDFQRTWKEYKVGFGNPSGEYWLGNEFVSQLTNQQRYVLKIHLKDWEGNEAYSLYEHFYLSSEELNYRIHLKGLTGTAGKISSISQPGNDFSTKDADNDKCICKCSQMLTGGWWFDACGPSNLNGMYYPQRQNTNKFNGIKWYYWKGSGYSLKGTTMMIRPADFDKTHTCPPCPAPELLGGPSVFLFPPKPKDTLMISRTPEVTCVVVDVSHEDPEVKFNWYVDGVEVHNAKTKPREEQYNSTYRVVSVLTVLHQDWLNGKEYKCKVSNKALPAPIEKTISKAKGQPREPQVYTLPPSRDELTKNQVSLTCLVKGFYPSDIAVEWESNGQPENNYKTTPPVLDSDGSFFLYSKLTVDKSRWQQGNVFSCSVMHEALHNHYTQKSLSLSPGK

B1: H1H690P (antibody, human IgG1, V domains shown)
VH: EVQLVESGGGLVQPGESLRLSCAASGFTFSSYAMSWVRQGPGKGLEWVSSITGSGDTTYYADSVKGRFTISRDNSKNTLYLHMNSLRAEDTAVYYCAKDFLDYSTYLAFDLWGQGTMVTVSS
VL: EIVLTQSPATLSLSPGERATLSCRASQSVSSYLTWYQQKPGQAPRLLSYDASNRATGIPARFSGSGSGTDFTLTISSLEPEDFAVYYCQQRSNWPLTFGGGTKVEIK
notes: Human IgG1
Take B1: inhibition with Biotin-hBA2 [1] was half-maximal at 0.017 nM (IC50). The “Percent Blocking of Ang-2FD Binding to Tie-2” value (from here on “Percent Blocking”) is 97.2% with Human Ang-2FD-hFc, 98% in the assay with Mouse Ang-2FD-hFc and 99.6% with Monkey Ang-2FD-hFc.

B2: H2M743N (antibody, V domains shown)
VH: EVQLLESGGGLVQPGGSLRLSCAASGFTFRKYAMSWVRQAPGKGLEWVSVISVSGGNTYYADSVKGRFTISRDNSKNTLYLQLNSLRAEDTAVYYCAKDLTDIVLMVYVDYWGQGTLVTVSS
VL: DIQMTQSPSSVSASVGDRVTITCRASQDIDRWLAWYQQKPGKAPKLLIYAASSLQSGVPSRFSGSGSGTDFTLTISTLQPEDFATYYCQQANSLPFTFGGGTKVEIK
notes: also called H1M743N
Consider B2, for which the IC50 in the assay with Biotin-hBA2 [2] turned out to be 0.011 nM.

B3: H2M750N (antibody, V domains shown)
VH: QVKLVESGGGVVQPGRSLRVSCAASGFTFSSYGMHWVRQAPGKGLEWLAIIWYDGDNKYYSDSVKGRFTISRDNSKNTLYLQMNSLRAEDTAEYYCVRDASIASRFLDYWGQGTLVTVSS
VL: DIQMTQSPSSLSASIGDRVTITCRATQDINNYLAWFQQKPGKAPKSLIYATSNLQSGVPSKFSGSGSGTDYTLTISSLQPEDFSTYYCQQYHSYPLTFGGGTKVEIK
notes: also called H1M750N; H1M750
In the assay with Biotin-hBA2 [2], B3 gave a concentration for half-maximal inhibition (IC50) of 0.00883 nM.

B4: H1M732N (antibody, V domains shown)
VH: EVQLVESGGGLVRPGGSLRLSCAASGFTFTNAWMSWVRQAPGKGLEWIGQIKSKTDGGTIDYAAPVKGRFTVSRDDSENTLFLQMNSLKTEDTAVYYCAGNWNYVDFDYWGQGTLVTVSS
VL: DIQMTQSPSSLSASVGDRVTITCRASQDIRNDLGWYQQKPGKAPKRLIYAASSLQGGVPSRFSGSGSGTEFTLTISSLQPEDFATYYCLQHNSYPFTFGPGTKVDIK
B4: in the assay with Biotin-hBA2 [2], the IC50 was determined as 0.0822 nM.

B5: H2M742N (antibody, V domains shown)
VH: DVQLLESGGDLVQPGGSLRLSCEASGFTFRNYVMIWVRQAPGKGLEWVSGISNSGGTTHYTDSVKGRFTISRDNSKNTLYLQINSLRAEDTAVYYCAKGYLDTSLIEGNWFDPWGQGTLVTVSS
VL: NIVMTQSPLSLPVTPGEPASISCRSSQSLLHSNGFNYLNWFLQKPGQSPQLLIYLGSNRASGVPDKFSGSGSGTDFTLNINRVEAEDVGIYFCMQTLQTPLTFGGGTKVEIK
notes: also called H1M742N
The molecule B5 came in with a concentration for half-maximal inhibition (IC50) with Biotin-hBA2 [2] of 0.00965 nM.

B6: H1H704P (antibody, V domains shown)
VH: QVQLVESGGDVVQPGRSLRLSCAASGFTFSSYGMHWVRQAPGKGLEWVAIIWYDGSNKYYADSVKGRFTISRDNSKNTLYLQMNSLRVEDTAVYSCARDFSISSRHFDYWGQGTLVTVSS
VL: DIQMTQSPSSLSASVGDRVTITCRASQAINNYLAWFQQKPGKAPKSLIYATSNLQSGVPSQFSGSGSGTDYTLTISSLQPEDFATYYCQQYYIYPITFGQGTRLEIK
notes: Human IgG1
As for B6, the IC50 with Biotin-hBA2 [1] was 0.056 nM. Also, the “Percent Blocking” value with Human Ang-2FD-hFc was found to be 97%; in the assay with Mouse Ang-2FD-hFc, 41.8%.

B7: H1H695P (antibody, human IgG1, V domains shown)
VH: QVQLVESGGGVVQPGRSLRLSCAASGFTFSSYGMHWVRQAPGKGLEWVAVMWYDETNKYYADSVKGRFTISRDNSKNTLYLQMNSLRAEDTAVYYCARYSGYEDYYHGMDVWGQGTTVTVS
VL: EIVMTQSPATPSVSPGERATLSCRASQSISSNLAWYQQKPGQAPRLLIYGASTRATGIPARFSGSGSGTEFTLTISSLQSEDFAVYYCQHYNNWITFGQGTRLEIK
notes: Human IgG1
Turning to B7, the midpoint of inhibition in the assay with Biotin-hBA2 [1], the IC50, lay at 0.059 nM. For the same molecule, the “Percent Blocking” value in the assay with Human Ang-2FD-hFc amounted to 98.4%; with Mouse Ang-2FD-hFc it was 97.6%.

B8: H1M749N (antibody, V domains shown)
VH: QVQLVESGGGVVQPGRSLRLSCAASGFTFSSYGMHWVRQAPGKGLEWVAVIWYDEFNKYYADSVKGRFTISRDNSKNTLYLQMNSLRAEDTAVYYCARERESGYSYGFDYWGQGTLVTVSS
VL: EIVMTQSPATLSVSPGERATLSCRAGQSVSSNLAWYQQKPGQAPRLLIYGASTRATGIPARFSGSGSGTEFTLTISSLQSEDFAVYYCQQYNNWWTFGQGTKVEIK
notes: also called H2M749N
For the molecule B8, in the assay with Biotin-hBA2 [2], the midpoint of inhibition, the IC50, lay at 0.00643 nM.

B9: H2M744N (antibody, V domains shown)
VH: QVQLVQSGVEVKKPGASVKVSCKTSGYTFSNNGFSWVRQAPGQGLEWLGWISGYNGNTNYAQKFQGRVTMTTDTSTSTAYMELRTLRSDDTAVYYCARDQDYSNFHWLDPWGQGTLVTVAS
VL: DIQMTQSPSSVSASVGDRVIITCRASQGLSSWLAWYQQKPGTAPKLLIHSASSLQTGVPSRFSGSGSGTEFALTINSLQPEDFGTYYCQQANSFPLTFGGGTRVEIK
notes: also called H1M744N; H1M744
Molecule B9 displayed an IC50 in the assay with Biotin-hBA2 [2] of 0.0114 nM.

B10: H1H685P (antibody, V domains shown)
VH: EVQLVESGGGLVQPGGSLRLSCAASGFTFSSYDIHWVRQATGKGLEWVSAIGPAGDTYYPGSVKGRFTISRENAKNSLYLQMNSLRAGDTAVYYCARGLITFGGLIAPFDYWGQGTLVTVSS
VL: EIVLTQSPGTLSLSPGERATLSCRASQSVSSTYLAWYQQKPGQAPRLLIYGASSRATGIPDRFSGSGSGTDFTLTISRLEPEDFAVYYCQHYDNSQTFGQGTKVEIK
B10: the Kd in assay [3] was determined as 0.148 nM; in assay [4] it was 0.0651 nM; in assay [5] it was 0.0939 nM. Also, the T1/2 in assay [3] came out at 2.14 h; in assay [4], 3.47 h; in assay [5], 1.07 h.

B11: H1H691P (antibody, human IgG1, V domains shown)
VH: EVQLVESGGGLVQPGRSLRLSCAASGFTFDDYAMHWVRQAPGKGLEWVSGISWNSGDIGYADSVKGRFTISRDNAKNSLYLQMNSLRAQDTALYYCAKAYGDYYYFYGMDVWGQGTTVTVS
VL: EIVLTQSPGTLSLSPGERATLSCRASQSVSSSYLAWYQQKPGQAPRLLIFSASSRATGIPDRFSGSGSGTDFTLTISRLEPEDFAVYYCQQYDNSLTFGGGTKVEIK
notes: Human IgG1
As to B11, the “Percent Blocking” value stood at 97.4% in the assay with Human Ang-2FD-hFc, 96.7% with Mouse Ang-2FD-hFc and 99.8% with Monkey Ang-2FD-hFc.
